Results reported in PMC7831379.

Target: pre-stabilized HIV-1 CA A14C/E45C/W184A/M185A hexamer (HIV-1)
Test: crystal structure

“pre-stabilized HIV-1 CA A14C/E45C/W184A/M185A hexamer (natural protein)” gave a stoichiometry N of 6.
